According to IntAct's records for PubMed 11742986:

B1: 26S proteasome regulatory subunit 8 homolog (Saccharomyces cerevisiae), Q01939 (parent)
chain: MTAAVTSSNIVLETHESGIKPYFEQKIQETELKIRSKTENVRRLEAQRNALNDKVRFIKDELRLLQEPGSYVGEVIKIVSDKKVLVKVQPEGKYIVDVAKDINVKDLKASQRVCLRSDSYMLHKVLENKADPLVSLMMVEKVPDSTYDMVGGLTKQIKEIKEVIELPVKHPELFESLGIAQPKGVILYGPPGTGKTLLARAVAHHTDCKFIRVSGAELVQKYIGEGSRMVRELFVMAREHAPSIIFMDEIDSIGSTRVEGSGGGDSEVQRTMLELLNQLDGFETSKNIKIIMATNRLDILDPALLRPGRIDRKIEFPPPSVAARAEILRIHSRKMNLTRGINLRKVAEKMNGCSGADVKGVCTEAGMYALRERRIHVTQEDFELAVGKVMNKNQETAISVAKLFK
partner: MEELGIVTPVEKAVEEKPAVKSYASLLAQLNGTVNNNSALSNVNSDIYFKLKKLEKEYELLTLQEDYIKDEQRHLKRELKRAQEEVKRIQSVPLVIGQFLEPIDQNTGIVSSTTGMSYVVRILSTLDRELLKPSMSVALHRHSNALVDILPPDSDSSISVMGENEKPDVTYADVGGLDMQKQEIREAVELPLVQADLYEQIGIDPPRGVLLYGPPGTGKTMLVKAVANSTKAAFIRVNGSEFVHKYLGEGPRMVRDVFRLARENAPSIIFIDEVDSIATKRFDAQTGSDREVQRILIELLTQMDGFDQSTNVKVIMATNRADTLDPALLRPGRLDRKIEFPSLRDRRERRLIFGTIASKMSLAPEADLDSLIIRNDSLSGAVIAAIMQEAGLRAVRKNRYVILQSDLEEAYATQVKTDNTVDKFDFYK

Variants of: B1
Details: with prs6b_yeast RPT3, P33298

Row | effect of a mutation on the interaction | Variant
1 | decreasing interaction | K195S
2 | decreasing interaction | K195R
